Reference: article PMC2196875

Target: titin fragment Z9-Z10 as used in isothermal titration calorimetry (human)
Test: ITC

Kd: 100 to 200 nM
Substance: untagged obscurin fragment Ob48-Ob49 (domain or fragment)
